One block for each sequence: values may come before it.
Legend:
HLA-B*15:09 = experiment: IEDB peptide-MHC binding, purified MHC/competitive/fluorescence; filed as Kd, often an IC50 or EC50 that approximates it; ≥ and ≤ were set here for values at or beyond the usual limits of such assays
HLA-A*02:06 = experiment: as above; details: source organism: Vibrio vulnificus YJ016
HLA-B*08:01 [1] = experiment: as above; details: source organism: Vibrio vulnificus YJ016
HLA-B*39:01 = experiment: as above
HLA-A*68:02 [2] = experiment: IEDB peptide-MHC binding, purified MHC/direct/fluorescence; filed as Kd, often an IC50 or EC50 that approximates it; ≥ and ≤ were set here for values at or beyond the usual limits of such assays; details: source organism: Vibrio vulnificus YJ016
HLA-B*07:02 = experiment: as above
HLA-A*23:01 = experiment: as above; details: source organism: Vibrio vulnificus YJ016
HLA-A*03:01 = experiment: as above
HLA-A*02:01 [3] = experiment: as above
HLA-A*24:03 = experiment: as above; details: source organism: Vibrio vulnificus YJ016
HLA-B*08:02 = experiment: as above; details: source organism: Vibrio vulnificus YJ016
HLA-B*15:01 = experiment: as above
HLA-B*57:01 = experiment: as above
HLA-A*11:01 = experiment: as above
HLA-A*31:01 = experiment: as above
HLA-B*58:01 = experiment: as above
HLA-B*15:17 [4] = experiment: as above
HLA-A*69:01 = experiment: as above
HLA-A*24:02 = experiment: as above; details: source organism: Vibrio vulnificus YJ016
HLA-A*01:01 = experiment: as above
HLA-B*27:05 = experiment: as above
HLA-B*18:01 = experiment: as above
HLA-A*26:03 = experiment: as above; details: source organism: Vibrio vulnificus YJ016
HLA-C*04:01 = experiment: as above
HLA-B*48:01 [5] = experiment: IEDB peptide-MHC binding, purified MHC/competitive/fluorescence; filed as Kd, often an IC50 or EC50 that approximates it; ≥ and ≤ were set here for values at or beyond the usual limits of such assays; details: source organism: Cryptosporidium parvum Iowa II
HLA-B*51:01 = experiment: as above; details: source organism: Influenza A virus H3N2
HLA-B*40:01 = experiment: IEDB peptide-MHC binding, purified MHC/direct/fluorescence; filed as Kd, often an IC50 or EC50 that approximates it; ≥ and ≤ were set here for values at or beyond the usual limits of such assays; details: source organism: Influenza A virus (A/SW/MN/12883/00(H1N2))
HLA-A*26:01 = experiment: as above; details: source organism: Influenza A virus(A/swine/Shandong/fNY/2003(H9N2))
HLA-B*08:01 [6] = experiment: as above; details: source organism: Influenza A virus(A/swine/Shandong/fNY/2003(H9N2))
HLA-B*46:01 [7] = experiment: as above
HLA-B*48:01 [8] = experiment: as above
HLA-C*08:02 = experiment: as above
HLA-B*15:42 = experiment: IEDB peptide-MHC binding, purified MHC/competitive/fluorescence; filed as Kd, often an IC50 or EC50 that approximates it; ≥ and ≤ were set here for values at or beyond the usual limits of such assays
HLA-B*83:01 = experiment: as above
HLA-B*15:02 = experiment: as above; details: source organism: Brucella abortus S19
HLA-B*46:01 [9] = experiment: as above; details: source organism: Brucella abortus S19
HLA-B*45:06 = experiment: as above
HLA-C*14:02 = experiment: as above
HLA-C*15:02 = experiment: IEDB peptide-MHC binding, purified MHC/direct/fluorescence; filed as Kd, often an IC50 or EC50 that approximates it; ≥ and ≤ were set here for values at or beyond the usual limits of such assays; details: source organism: Brucella abortus S19
HLA-C*12:03 = experiment: as above; details: source organism: Brucella abortus S19
HLA-C*06:02 = experiment: as above; details: source organism: Brucella abortus S19
HLA-C*03:03 = experiment: as above; details: source organism: Pan troglodytes
HLA-A*68:02 [10] = experiment: IEDB peptide-MHC binding, purified MHC/competitive/fluorescence; filed as Kd, often an IC50 or EC50 that approximates it; ≥ and ≤ were set here for values at or beyond the usual limits of such assays; details: source organism: Escherichia coli 536
HLA-A*26:02 = experiment: as above; details: source organism: Escherichia coli 536
HLA-A*02:01 [11] = experiment: as above; details: source organism: Escherichia coli 536
HLA-B*15:17 [12] = experiment: as above; details: source organism: Escherichia coli 536
[13] = source organism: Vibrio vulnificus YJ016
[14] = source organism: Influenza A virus (A/SW/MN/12883/00(H1N2))
[15] = source organism: human gammaherpesvirus 4
[16] = source organism: Brucella abortus S19
[17] = source organism: Pan troglodytes
[18] = source organism: Escherichia coli 536
[19] = source organism: Escherichia coli O157:H7

Sequence: WHQARFEEL
- Kd (HLA-B*15:09; [13]): 0.0229 µM
- Kd (HLA-A*02:06): ≥ 20 µM
- Kd (HLA-B*08:01 [1]): ≥ 20 µM
- Kd (HLA-B*39:01; [13]): 0.0179 µM
- Kd (HLA-A*68:02 [2]): ≥ 20 µM
- Kd (HLA-B*07:02; [13]): ≥ 20 µM
- Kd (HLA-A*23:01): 1.7 µM
- Kd (HLA-A*03:01; [13]): ≥ 20 µM
- Kd (HLA-A*02:01 [3]; [13]): ≥ 20 µM
- Kd (HLA-A*24:03): 0.145 µM
- Kd (HLA-B*08:02): ≥ 20 µM
- Kd (HLA-B*15:01; [13]): ≥ 20 µM
- Kd (HLA-B*57:01; [13]): ≥ 20 µM
- Kd (HLA-A*11:01; [13]): ≥ 20 µM
- Kd (HLA-A*31:01; [13]): ≥ 20 µM
- Kd (HLA-B*58:01; [13]): ≥ 20 µM
- Kd (HLA-B*15:17 [4]; [13]): ≥ 20 µM
- Kd (HLA-A*69:01; [13]): ≥ 20 µM
- Kd (HLA-A*24:02): 8.8 µM
- Kd (HLA-A*01:01; [13]): ≥ 20 µM
- Kd (HLA-B*27:05; [13]): ≥ 20 µM
- Kd (HLA-B*18:01; [13]): ≥ 20 µM
- Kd (HLA-A*26:03): ≥ 20 µM

Sequence: WYDWQQVPF
- Kd (HLA-C*04:01; source organism: West Nile virus): 0.007 µM

Sequence: IQNEIMKPL
- Kd (HLA-B*48:01 [5]): 0.502 µM

Sequence: IQNDLITEF
- Kd (HLA-C*04:01; source organism: Vaccinia virus Copenhagen): ≥ 20 µM

Sequence: FPNEVGARI
- Kd (HLA-B*15:09; source organism: Influenza A virus H3N2): 1.13 µM
- Kd (HLA-B*51:01): 0.352 µM
- Kd (HLA-B*40:01): ≥ 20 µM
- Kd (HLA-B*07:02; [14]): 0.066 µM
- Kd (HLA-A*26:01): ≥ 20 µM
- Kd (HLA-A*03:01; [14]): ≥ 20 µM
- Kd (HLA-A*02:01 [3]; [14]): ≥ 20 µM
- Kd (HLA-B*15:01; [14]): ≥ 20 µM
- Kd (HLA-B*57:01; [14]): ≥ 20 µM
- Kd (HLA-A*11:01; [14]): ≥ 20 µM
- Kd (HLA-A*31:01; [14]): ≥ 20 µM
- Kd (HLA-B*58:01; [14]): ≥ 20 µM
- Kd (HLA-B*08:01 [6]): 3.05 µM
- Kd (HLA-B*15:17 [4]; [14]): ≥ 20 µM
- Kd (HLA-A*69:01; [14]): 0.0038 µM
- Kd (HLA-A*01:01; [14]): ≥ 20 µM
- Kd (HLA-B*27:05; [14]): ≥ 20 µM
- Kd (HLA-B*18:01; [14]): ≥ 20 µM
- Kd (HLA-B*46:01 [7]; [14]): ≥ 20 µM
- Kd (HLA-B*48:01 [8]; [14]): ≥ 20 µM

Sequence: RSDEYVAYY
- Kd (HLA-C*04:01; [15]): ≥ 20 µM
- Kd (HLA-C*08:02; [15]): 0.481 µM

Sequence: YMRERLSDF
- Kd (HLA-B*15:42; [16]): ≥ 5 µM
- Kd (HLA-B*83:01; [16]): ≥ 5 µM
- Kd (HLA-B*15:02): 0.235 µM
- Kd (HLA-B*46:01 [9]): 0.0306 µM
- Kd (HLA-B*45:06; [16]): ≥ 5 µM
- Kd (HLA-C*14:02; [16]): 0.018 µM
- Kd (HLA-C*15:02): ≥ 20 µM
- Kd (HLA-C*12:03): 0.094 µM
- Kd (HLA-C*06:02): 0.112 µM

- Kd (HLA-B*15:42; [17]): ≥ 5 µM
- Kd (HLA-B*83:01; [17]): ≥ 5 µM
- Kd (HLA-B*45:06; [17]): ≥ 5 µM
- Kd (HLA-C*14:02; [17]): 0.0768 µM
- Kd (HLA-C*08:02; [17]): ≥ 20 µM
- Kd (HLA-C*03:03): ≥ 20 µM
Sequence: VMPPRTLLL

- Kd (HLA-A*68:02 [10]): ≥ 20 µM
- Kd (HLA-A*26:02): ≥ 20 µM
- Kd (HLA-B*15:09; [18]): ≥ 20 µM
- Kd (HLA-A*02:01 [11]): ≥ 20 µM
- Kd (HLA-B*15:17 [12]): 0.214 µM
- Kd (HLA-B*39:01; [18]): ≥ 20 µM
- Kd (HLA-B*07:02; [19]): 0.149 µM
- Kd (HLA-B*15:01; [19]): 0.019 µM
- Kd (HLA-B*57:01; [19]): ≥ 20 µM
- Kd (HLA-A*11:01; [19]): ≥ 20 µM
- Kd (HLA-A*31:01; [19]): ≥ 20 µM
- Kd (HLA-A*69:01; [19]): ≥ 20 µM
- Kd (HLA-A*01:01; [19]): ≥ 20 µM
- Kd (HLA-B*27:05; [19]): ≥ 20 µM
- Kd (HLA-B*46:01 [7]; [19]): 1.34 µM
- Kd (HLA-B*48:01 [8]; [19]): ≥ 20 µM
Sequence: VMAASGAPF

Source: the Immune Epitope Database (IEDB)
